The record followed here is publication PMC3576407, “N332-Directed Broadly Neutralizing Antibodies Use Diverse Modes of HIV-1 Recognition: Inferences from Heavy-Light Chain Complementation of Function” (PLoS ONE, 2013).

Holding throughout (test): ELISA; 200 ng gp120 coated on Maxisorb 96-well plates in PBS overnight at 4°C; blocked with PBS 5% dry milk; 25–50 µl antibody supernatant 1 h at RT; HRP goat anti-human IgG (H+L); TMB, OD450; absorbance normalised by the expression titer
What all share (conditions): one partner purified
A general note: An ELISA detects its analyte on a solid surface through an enzyme-linked reagent.

In experiment [1] the target is T1, HIV-1 CAAN gp120 monomeric protein (HIV-1 subtype B, isolate CAAN …, UniProt Q5G5U4, strain).
T1 construct: gp120 envelope glycoprotein (the gp120 product of Env gp160) of HIV-1 primary isolate CAAN, full-length gp120, monomeric

In experiment [2] the target is T2, HIV-1 BaL gp120 monomeric protein (HIV-1 subtype B, isolate BaL (clone not …, UniProt Q2MKA8, strain)).
T2 construct: gp120 envelope glycoprotein (the gp120 product of Env gp160) of HIV-1 primary isolate BaL, full-length gp120, monomeric

Experiment [3] has as its target T3, HIV-1 YU2 gp120 monomeric protein (HIV-1 clade B, primary isolate YU2, UniProt P35961).
T3 construct: gp120 envelope glycoprotein (the gp120 product of Env gp160) of HIV-1 primary isolate YU2, full-length gp120, monomeric

B1: PGT121 (wild-type IgG, PGT121 heavy chain with PGT121 light chain) (antibody, V domains shown)
VH: QMQLQESGPGLVKPSETLSLTCSVSGASISDSYWSWIRRSPGKGLEWIGYVHKSGDTNYSPSLKSRVNLSLDTSKNQVSLSLVAATAADSGKYYCARTLHGRRIYGIVAFNEWFTYFYMDVWGNGTQVTVSS
VL: DISVAPGETARISCGEKSLGSRAVQWYQHRAGQAPSLIIYNNQDRPSGIPERFSGSPDSPFGTTATLTITSVEAGDEADYYCHIWDSRVPTKWVFGGGTTLTVL
notes: PGT121 heavy chain; PGT121 light chain; also called PGT121-H/PGT121-L; source: HEK 293T cells (methods; the results say 293F), transient transfection in 96-well microplates, supernatant used directly
With B1, the binding result in experiment [1] and in experiment [2] was “binds” in each case.

B2: PGT128 (wild-type IgG, PGT128 heavy chain with PGT128 light chain) (antibody, V domains shown)
VH: QPQLQESGPTLVEASETLSLTCAVSGDSTAACNSFWGWVRQPPGKGLEWVGSLSHCASYWNRGWTYHNPSLKSRLTLALDTPKNLVFLKLNSVTAADTATYYCARFGGEVLRYTDWPKPAWVDLWGRGTLVTVSS
VL: QSALTQPPSASGSPGQSITISCTGTSNNFVSWYQQHAGKAPKLVIYDVNKRPSGVPDRFSGSKSGNTASLTVSGLQTDDEAVYYCGSLVGNWDVIFGGGTKLTVL
notes: PGT128 heavy chain; PGT128 light chain; also called PGT128-H/PGT128-L; source: HEK 293T cells (methods; the results say 293F), transient transfection in 96-well microplates, supernatant used directly
As to B2, the binding result in experiment [3] and in experiment [1] was “binds” each time.
